According to the nanobody polyreactivity screen of Harvey et al. (2022):

Test: yeast display, Sf9 membrane polyspecificity reagent, FACS + sequencing; frameworks hold sequencing errors
Method in brief: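 A synthetic nanobody library was expressed on Saccharomyces cerevisiae BJ5465 by galactose induction for 36–48 hours. The library was stained for 1 hour at 4 °C with 10% biotinylated, detergent-solubilized Sf9 membrane reagent and enriched with streptavidin microbeads before FACS. Low and high (top ~1%) gates were set on anti-HA fluorescence for expression and streptavidin fluorescence for reagent binding, and each polyreactivity label reflects the gate of origin.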

| Sequence | polyreactivity (PSR sort gate) |
| --- | --- |
| QVQLVESGGGLVQAGGSRRLSCAASGSTFWYYAMGWYRQAPGKERELVAAIRWSDGSTYYADSVKGRFTISRDNAKNTVYLQMTSLKPEDTAVYYCEYYYWGQGTQVTVSS | low polyreactivity |
| QVQLVESGGGLVQAGGSRRLSCAASGSTVYTNAMGWSRQAPGKVRELVAAISGSGGSTYYADSVKGRFTISRDNPKNTVYLQMNSLKPEDTAVYYCAARSRNYDTRFDYWGQGTQVTVSS | low polyreactivity |
| QVQLVESGGGLVQAGGSRRLTCAGSGYIFRPYAKRWYRQAPGKERELVAVISSGGSTYYADSVKGRFTISRDNEKNTVYFQMNSLKPQDTAVYYCKRTLWSMGGTTYEYWGQGTQVTVSS | low polyreactivity |
| QVQLVESGGGLVQAGGSVRISCAASGRTFWYYAMGVYIQAPRKERELLAAITGRGGSTHYADSVKGRLTISRDNAKNTVYLPMISLKPEDTAVYYCAKDHYYRFPWGTGGYRGQGTQVTVSS | low polyreactivity |
| QVQLVESGGGLVQAGGTLPLSCAASGRTFNGNAMGWYRQAPGKERELVATINYSGGSTYYADSVKGRFTISRDNAKNTVYLQMNSLKPEDNAVYYCAAGGYPWYLRRGGFAGYDYWGQGTQLTVSS | low polyreactivity |
| QVQLVESGGGLVQAGGTLRISCAPSGSTCVVINMGWYRQAPGKERELVAAISYSGGSTYADSVKGRFTISRDNAKNTVYLQMNSLKLEDTAVYYCAARHYWWYDYWGQGTQVTVSS | low polyreactivity |
| QVQLVESGGGLVQAGGTLRLICAASAFIFDGYTMGWYRQAPGTERELVAAISRSGGRTYYADSVKGRFTISRDNAKNTVYLQMNSQKPEDTAVYDCAVRYRQYSQNLASDYGYWGQGTQVTVSS | high polyreactivity |
| QVQLVESGGGLVQAGGTLRLICAASGRISLRNGMGWYRQAPRKERELVAAITSGSSTDYADSVKGRFTISRDNAKNTVYLQMNSLKPEDTAVYYCAKDLLQSGPGAGRYDYWGQGTQVTVSS | low polyreactivity |
| QVQLVESGGGLVQAGGTLRLSCAASGGIFTDYTMGWYRQAPGKERELVAAITWTGGSTYYADSVKGRFTISRDNAKNTVYLQMNSLKPEDTAVYYCAADDYWVNLDYWGQGTQVTVSS | low polyreactivity |
| QVQLVESGGGLVQAGGTLRLSCAASGGIIAINAMVWYRQAPGKERELVAAISWGDGITYYADSVKGRFTISRDNAKNTVYLQMNSLKPEDTAVYYCAADEDEYRGGDETWGQGSQVTVSS | low polyreactivity |
| QVQLVESGGGLVQAGGTLRLSCAASGGTSRSYAMVWYRQAPGKERELVAAISWRGGRTYYADSVKGRFTISRDNAKNTVYLQMNSLKPEDTAVYYCAARQYSQETYDYWGQGSQVTVSS | high polyreactivity |
| QVQLVESGGGLVQAGGTLRLSCAASGIIFSFYTMGWYRQAPGKERELVAAITWSGGSTYYADSVKGRFTISRANAKNTVYLQMNSLKPEDTAVYYCNARNPWRKRSQGYSWGQGTQVTVSS | low polyreactivity |
| QVQLVESGGGLVQAGGTLRLSCAASGITFEHYAMGWYRQAPGKERELVAAINRSGDNTYYADSVKGRFTISRYNAKNTFYLQMNSLKPEDTAVYYCNTVELYWRGYDYWGQGTQVTVSS | high polyreactivity |
| QVQLVESGGGLVQAGGTLRLSCAASGLTFARYAMGWYRQAPGKERELVAGIDSTGGTTYYADSVKGRFTISRDNAKNTFYLQMISLIPEDTAVYYCNTGGTFLDWVRSPFGFGYWGQGTQVTVSS | low polyreactivity |
| QVQLVESGGGLVQAGGTLRLSCAASGRIFQYYDMGWYRQAPGKERELVAAITFSGGSTYYADSVKGRFTISRDNAKNTVYLQMNSLKPEDTAVYYCARGYWVYYPDGDYWGQGTQVTVSS | low polyreactivity |
| QVQLVESGGGLVQAGGTLRLSCAASGRIFVINTMGWYRQAPGKERELVAAISRGGSTNYADSLKGRFTISRDNAKNTVYLQMNSLKPEDTAVYYCAATGYILFAGGGYDYWGQGTQVTVSS | low polyreactivity |
| QVQLVESGGGLVQAGGTLRLSCAASGRIISYNPMGWYRAAAGKEMELVAPINWGGGSTYYADSVKGRFTISRDNAKNTVYLQMNSLKPEDTAVYYCNADSNWYYQWNYYGLYDYWGQGTQVTVSS | low polyreactivity |
| QVQLVESGGGLVQAGGTLRLSCAASGSIFANYAMGWYRQAPGKERELVASISSGDSTNYADSVKGRFTISRDNAKNTVYLQMNSLKPEDTAVYYCASTFVGGIWSGYNYWGQGTQVTVSS | low polyreactivity |
| QVQLVESGGGLVQAGGTLRLSCAASGSIFLINAMGWYRPAPGKERELVAAISRSGGRTYYADSVKGRFTISRDNAKNTVYLQMNSLKPEDTAVYYCAVPSIYYAGRAYDYWGQGTQVSVSS | high polyreactivity |
| QVQLVESGGGLVQAGGTLRLSCAASGSIFRRKVMVWYRQAPGKERELVAAMSWSGDRTYYADSVKGRFTISRDNAKNTVYLQMNSLKPEDTAVYYCAAANASPRRYGQYDDWGQGTQVTVSS | high polyreactivity |
| QVQLVESGGGLVQAGGTLRLSCAASGSIFYRYDMGWYRPAPGKERELVAAITWSGGSTYYADSVKGRFTISRDNAKNTVYLQMNSLKPEDTAVYYCNAPGDGYLYDHTYDYWGQGTQVTVSS | low polyreactivity |

| Sequence | polyreactivity (PSR sort gate) |
| --- | --- |
| QVQLVESGGGLVQAGGTLRLSCAASGSISIRNAMGWYRQAPGKERELVAAITYSGGSTYYADSVKGRFTISRDNAKNTVYLQMNSLKPEDTAVYYCAKDHYRFRYDYWGQGTQVTVSS | low polyreactivity |
| QVQLVESGGGLVQAGGTLRLSCAASGSTFLINAMGWYRQAPGKERELVAAISWGGGSTYYADSVKGRFTISRDNGKNSVDLQMNRLTPEDTAVYYCAARYWYRVDYWGQGTQVTVSS | high polyreactivity |
| QVQLVESGGGLVQAGGTLRLSCAASGYTLKWYTMGWYRQAPGKERELVATIRRGGGTYYADSVKGRFTISRDNAKNTVYLQMNSLKPVDTPVYYCAAEWSSVYNYDYWGQGTQVTVSS | low polyreactivity |
| QVQLVESGGGLVQAGGTLRLSCAASVFTFYYNTMGWYRQAPGKERELVAGIDISGSSTYADSVKGRFTISRDNAKNTVYLQMNSLKPEDTAVYYCAAVYFWGMDYWGQGTQVTVSS | low polyreactivity |
| QVQLVESGGGLVQAGGTLRLSCAASVSTIAQNAMGWYRQAPGKEREFVAAITGTVGSTYYADSVKGRFTISRDNAKNTVYLQMKSLKPEDTAVYYCNTRGFNGRVYPYDYWGQGTQVTVSS | low polyreactivity |
| QVQLVESGGGLVQAGGTLRLSCAATRSTFYPYAMGWYRQAPGKERELVAAISDGDSTNYADSVKGRFTISRDNAKNTVSLQMNSVKPEDTAVYYCNADYVRIFYSYYGYHDYDYWGQGTQVTVSS | low polyreactivity |
| QVQLVESGGGLVQAGGTLRLSCADSGSTFAGNGMGWYRQAPGKERQLVAGIDVTGGSTYYADSVKGRFTISRDNAKNTVYLQMNSLKPEDTAVYYCAARVVRYGYKYYYWGQGTQVTVSS | low polyreactivity |
| QVQLVESGGGLVQAGGTLRLSCAPSGSIFTFYAMGWYRQAPGKERELVAAITRSGGSTYYADSVKGRFTISRDNAKNTVYLQMNSLKPEDTAVYYCAKDPSSYVTYRYYYWGQGSQVTVSS | low polyreactivity |
| QVQLVESGGGLVQAGGTLRLSCAPSGSTFYANTMGWYRPAPGKERELVATISWTGSSTYYADSVKGRFTISRDNAKNTVYLQMNSLNPEDTAVYYCNKRYYYRRNYWGQGTQVTVSS | high polyreactivity |
| QVQLVESGGGLVQAGGTLRLSCSASGIISTYYAMGWYRQAPGKERELVAAITSGGSTYYADSVKGRFTISRDNAKNTVYLQMNSLKPEDTAVYYCATRRIYKWYRYYYWGQCTQVTVSS | high polyreactivity |
| QVQLVESGGGLVQAGGTLRLSWAASGSNFGFYTMGWYRLAPGKERELVAAITWSDSSTYADSVKGRYTISRDNAKNTVYLQMNSLKPEDTAVYYCNADTTTVEYYPFHYYTYDYWGQGTQVTVSS | low polyreactivity |
| QVQLVESGGGLVQAGGTLRLTCAASGLTFGSNAMGWYRTAPGKERELVAAISVSGSTYYADSVKGRFTISRDNAKNTVYLLMNSLKPEDTAVYYCATYWAAGSRSRYASWGQGTQVTVSS | high polyreactivity |
| QVQLVESGGGLVQAGRSLRLICAASGRILGGNTMGWYRQAPGKERELVAGISYSGGRTYYADSVQRRFTISRDNAKHTFYLQMNSLKPEDTAVYYCNVPLGRGRKIAYGYWGQGTQVTVSS | high polyreactivity |
| QVQLVESGGGLVQAGRSLRLICAASGRILVPYTMGWYRQAPGKERDLVAAITIGGRTTYADSVKGRLTISRDNAKNTLYLQMNIMKPEDTAVYYCAKRDWRYEWYGYDYWGQGTQVTVSS | low polyreactivity |
| QVQLVESGGGLVQAGRSLRLICAASGSIFDWYAMGWYRQAPGKEGELVAAISSGDSTYYADSVKGRFTISRDNAKNTVYLQMNSLKPEDTAVYYCAAVTKLSGIRYHYWGQGTQVTVSS | low polyreactivity |
| QVQLVESGGGLVQAGRSLRLRCPASGLTINSYAMGWYRQAPGKERELVAAIDWSGGRTYYADSVKGRFTISRDNAKNTVYLQMNSLKPEDTAVYYCAAYSRNRALRFNYWGQGTQVTVSS | high polyreactivity |
| QVQLVESGGGLVQAGRSLRLSCAASGFIFDWNAMGWYRQAPGKERELVAAISWSGGRTYYADSVKGRFTISRDNAKNTVYLQMNSLKPEDTAVYYCNARRYFSRDTSGYNYWGQGTQVTVSS | high polyreactivity |
| QVQLVESGGGLVQAGRSLRLSCAASGFIFRWYAMGWYRQAPGKERELVAGLTSGDNTYYADSVKGRFTISRDNAKNTVYLQMNSLKPEDTAVSYCAADGWLWSFTGDGWWFDYWGQGTQVTVSS | low polyreactivity |
| QVQLVESGGGLVQAGRSLRLSCAASGFIFRYYAMGWYRQAPGKETELVAAIRGGGSTYYADSVKGRFTISRDNAKNTVYLQMKSLNPEDTAVYYCAVRWVSRFGISSYDYWGQGTQVTVSS | high polyreactivity |
| QVQLVESGGGLVQAGRSLRLSCAASGFIFWSNTKGWYRQAPGKERELVAAISYSGARTYYADSVKGRFTISRDNAKNTVYLLMNSLKPEDTAVYDCAAYLWGTHDRMDYWGQGTQVTVSS | high polyreactivity |
